Reference: patent US20250035612A1 (NEURIMMUNE, published 2025)
Ends that are not written are not given here. * marks the point of attachment. Biotin = O=C1N[C@H]2[C@H](CS[C@H]2CCCCC(=O)*)N1; Ahx = NCCCCCC(=O)O

Assays:
[1] = biological target: T1, cyclic peptide TTR34-54cyc (cyclized via disulfide bridge between two cysteine residues within the poly-glycine stretch); assay: ELISA-1, coated TTR34-54cyc at 10 µg/ml, anti-human IgG-HRP detection
T1 construct: 31 residues: 21 residues of TTR (34-54 of wild type TTR) flanked by the linkers GCGGG and GGGCG; Synthetic (Schafer-N); also called cyclic TTR peptide
T1 sequence (peptide, as listed by the source): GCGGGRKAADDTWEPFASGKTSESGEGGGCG
Protocol: (§1) In particular, 96-well microplates were coated for 1 hour at 37° C. with TTR34-54cyc, TTR40-49, Biotin. TTR40-449, and mis-WT-TTR (FLISA-1) and with TTR34-54cyc, Biotin. TTR34-54cyc, TTR40-49, Biotin. TTR40-449, and mis-WT-TTR (ELISA-2), respectively, wherein each target antigen has been diluted to a concentration of 10 μg/ml in PBS buffer pH 7.4. Non-specific binding sites were blocked for 1 hour at room temperature (RT) with a blocking buffer containing 2% bovine serum albumin (BSA) and 0.1% tween-20 in PBS buffer. […] Binding was determined using an anti-human IgG antibody conjugated with horseradish peroxidase (HRP), followed by measurement of HRP activity in a standard colorimetric assay (ThermoFisher Scientific Inc., Waltham, Massachusetts, USA). Data were analyzed with the Prism software from GraphPad. ECso values were estimated using non-linear regression of individual data points using log (agonist) versus response model with variable slope. Data fitting was performed with the least square regression method.

Biotin.TTR34-54cyc [2] = biological target: T2, Biotin.TTR34-54cyc (N-terminal Biotin-(Ahx): amino hexanoic acid spacer between the N-terminus and the biotin residue; cyclized via disulfide bridge between the two cysteine residues); assay: ELISA, coated peptide at 10 µg/ml, reference mis.WT-TTR
T2 construct: Biotinylated form of TTR34-54cyc; also called biotinylated TTR34-54cyc
T2 sequence (peptide, as listed by the source): as above
Protocol: as §1

[3] = biological target: T1, cyclic peptide TTR34-54cyc; assay: as above
Protocol: as §1

[4] = biological target: T1, cyclic peptide TTR34-54cyc; assay: ELISA-2, coated TTR34-54cyc at 10 µg/ml, anti-human IgG-HRP detection
Protocol: as §1

[5] = biological target: T1, cyclic peptide TTR34-54cyc; assay: cell-based or functional assay
Biotin.TTR40-49 = biological target: T3, Biotin.TTR40-49; assay: ELISA-1 and ELISA-2, peptide coated at 10 µg/ml, anti-human IgG-HRP detection
T3 construct: also called Biotin; TTR40-449; biotinylated TTR peptide TTR40-49
T3 peptide: {Biotin-Ahx}-TWEPFASGKT
Protocol: as §1

TTR peptide TTR40-49 = biological target: T4, TTR peptide TTR40-49; assay: as above
T4 peptide: H-TWEPFASGKT-OH
Protocol: as §1

Biotin.TTR34-54cyc [6] = biological target: T2, Biotin.TTR34-54cyc; assay: ELISA (ELISA-2), plate coated with Biotin.TTR34-54cyc at 10 µg/ml, antibody titrated
Protocol: as §1

[7] = biological target: fluorescently labeled misfolded TTR aggregates of the monomeric F87M/L110M-TTR mutant (mis.TTR-488) (UniProt P02766 21-147); assay: cell-based or functional assay
[8] = biological target: T1, cyclic peptide TTR34-54cyc; assay: cell-based or functional assay; remark: listed apart in the source

B1: anti-TTR antibody NI-301.37F1 (antibody, V domains shown)
VH: QVQLQESGPGLVKPSETLSLTCSVSGGSIISRSSYWGWIRQPPGKGLEWIGGIYHSGNTYDNPSLKSRLTMSVDTSKNQFSLNLRSVTAADTAVYYCARIVPGGDAFDIWGQGTMVTVSS
VL: DIQMTQSPSSLSASVGDRVTIACRASQSVGTYLNWYQQKRGKAPKLLIFAASSLQSGVPSRFSGSGSGTDFTLTISSLQPEDFATYYCQQSYSSPPTFGQGTKVEIK
notes: detected with anti-human IgG; also called 37F1_3
For B1, the EC50 [1] was 27 pM, the “fold stronger binding than to mis. WT-TTR” value (Biotin.TTR34-54cyc [2]) was roughly 10 fold and the “fold stronger binding than to mis. WT-TTR” value [3] was roughly 10 fold. The EC50 [4] was 660 pM, the “EC50 (ng/mL) of the FcγR1 ADCP reporter assay, plate coated with TTR34-54cyc; reference sample (RS) 100%, run with the 50% test sample” value [5] was 19.8 ng/mL and the “EC50 (ng/mL) of the FcγR1 ADCP reporter assay, plate coated with TTR34-54cyc; reference sample (RS) 100%, run with the 70% test sample” value [5] was 19.8 ng/mL. For the same binder, the “EC50 (ng/mL) of the FcγR1 ADCP reporter assay, plate coated with TTR34-54cyc; reference sample (RS) 100%, run with the 130% test sample” value [5] was 17.6 ng/mL, the “EC50 (ng/mL) of the FcγR1 ADCP reporter assay, plate coated with TTR34-54cyc; reference sample (RS) 100%, run with the 150% test sample” value [5] was 19.3 ng/mL and the “EC50 (ng/mL) of the FcγR1 ADCP reporter assay, plate coated with TTR34-54cyc; test sample 50% (nominal concentration)” value [5] was 39 ng/mL. For the same binder, the “EC50 (ng/mL) of the FcγR1 ADCP reporter assay, plate coated with TTR34-54cyc; test sample 70% (nominal concentration)” value [5] was 30.4 ng/mL, the “EC50 (ng/mL) of the FcγR1 ADCP reporter assay, plate coated with TTR34-54cyc; test sample 130% (nominal concentration)” value [5] was 13.6 ng/mL and the “EC50 (ng/mL) of the FcγR1 ADCP reporter assay, plate coated with TTR34-54cyc; test sample 150% (nominal concentration)” value [5] was 13.5 ng/mL. The binding result (Biotin.TTR40-49) was “no binding”, the binding result (TTR peptide TTR40-49) was “no binding” and the “EC50 (read off the curve)” value (Biotin.TTR34-54cyc [6]) was roughly 600 pM. The “EC50 of the mis.TTR-488 phagocytosis dose-response in THP1 cells, 0.7x_NI-301.37F1_3 (nominal concentration; sample at 0.7x of the reference)” value [7] was 1500 pM, the “EC50 of the mis.TTR-488 phagocytosis dose-response in THP1 cells, 1x_NI-301.37F1_3” value [7] was 1200 pM and the “EC50 of the mis.TTR-488 phagocytosis dose-response in THP1 cells, NI-301.37F1_W1 GMP DS” value [7] was 540 pM. The “EC50 of the mis.TTR-488 phagocytosis dose-response in THP1 cells, NI-301.37F1_W1 non-GMP DP” value [7] was 920 pM and the “EC50 of the FcγR1 ADCP reporter assay, first experiment (FIG. 11); plate coated with 3 µg/mL TTR34-54cyc, NI-301.37F1 RS dilutions 500-0.4 ng/ml” value [8] was 0.0198 µg/mL.
